Data on three molecules can be found in patent US20240400689A1 (ANTENGENE BIOLOGICS, published 2024).

In general, EC50 refers to the concentration needed to bring the measured effect to its halfway point. Read a high EC50 as a need for much substance. The Kd is the constant that tells how readily two partners part at equilibrium. A high value points to weaker binding. As usually defined, the koff is a measure of how fast the partners let go of each other. The low end stands for a long-lived complex, the high end for a short-lived complex. What is called kon is a measure of how fast the partners come together. Low readings indicate slower complex formation, high ones faster complex formation.

Where two headings read alike, the source gives them in different places.

Experiment [1] deals with T1, human CD276 protein (human, UniProt Q5ZPR3 29-534).
T1 construct: whole, on cells; for SKOV3 and the other cancer lines the protein is the cells' own; also called B7-H3; B7H3
T1 sequence (looked up): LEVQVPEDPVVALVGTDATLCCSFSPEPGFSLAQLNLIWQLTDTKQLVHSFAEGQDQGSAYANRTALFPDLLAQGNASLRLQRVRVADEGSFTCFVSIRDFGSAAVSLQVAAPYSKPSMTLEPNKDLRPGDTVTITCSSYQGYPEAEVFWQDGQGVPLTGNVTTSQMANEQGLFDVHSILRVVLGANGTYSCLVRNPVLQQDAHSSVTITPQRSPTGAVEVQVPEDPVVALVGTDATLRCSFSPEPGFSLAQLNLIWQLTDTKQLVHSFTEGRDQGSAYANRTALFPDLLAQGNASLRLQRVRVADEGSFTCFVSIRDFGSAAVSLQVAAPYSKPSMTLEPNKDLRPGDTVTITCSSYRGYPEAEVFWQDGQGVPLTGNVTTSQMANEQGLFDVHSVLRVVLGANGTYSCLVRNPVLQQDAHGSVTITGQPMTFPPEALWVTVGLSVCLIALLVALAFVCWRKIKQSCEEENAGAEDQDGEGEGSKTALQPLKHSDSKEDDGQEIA
Nature of the experiment: FACS titration on SKOV3 cells (MFI against Conc. (nM)); unit taken from the concentration axis. An excerpt:
Sequences of 31 mouse antibodies from Table 5 were selected to generate and produce human IgG1 chimeric antibodies. The binding affinity of these antibodies and bench mark antibody, Enoblituzumab (see U.S. Pat. No. 8,802,091, MGA271, specifically with a construct designated as hBRCA84D-2) and MGC018 (an antibody-drug-conjugate, in which the mAb MGA017 (human IgG1) is conjugated via a cleavable linker to the prodrug seco-DUocarmycin hydroxyBenzamide Azaindole (DUBA), an alkylating agent that can damage DNA in both dividing and non-dividing cells, thereby causing cell death) with human patient derived ovarian cancer cell line, SKOV3, was determined by FACS analysis.
1. Digested cells using Trypsin (1×); Centrifuged the harvested cells at 300 g for 3 min and discarding the supernatant. […] 2. Washed the cells 2 times with FACS buffer by centrifuging at 300 g for 3 min and discarding the supernatant. [0445] 3. […] Kept the cells in dark for FACS analysis.

For experiment [2], the target named is T1, human CD276 protein. Nature of the experiment: FACS on SKOV3 cells. The method in brief: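 Human IgG1 chimeric antibodies were tested for binding to trypsin-detached SKOV3 ovarian cancer cells by flow cytometry, with cells washed in FACS buffer and kept in the dark before acquisition. Titration read-out was MFI plotted against antibody concentration (nM).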

Experiment [3] deals with T1, human CD276 protein. Nature of the experiment: cell-based or functional assay.
Experiment [4] addresses T1, human CD276 protein. Nature of the experiment: cell-based or functional assay. This is another data set of the same source.
In experiment [5] the target is T1, human CD276 protein. Nature of the experiment: cell-based or functional assay. This is another data set of the same source.
Experiment [6] has as its target T2, HUMAN B7H3 (Biacore analyte) (human, UniProt Q5ZPR3 29-461, limits assumed).
T2 construct: also called hB7H3
T2 sequence (looked up): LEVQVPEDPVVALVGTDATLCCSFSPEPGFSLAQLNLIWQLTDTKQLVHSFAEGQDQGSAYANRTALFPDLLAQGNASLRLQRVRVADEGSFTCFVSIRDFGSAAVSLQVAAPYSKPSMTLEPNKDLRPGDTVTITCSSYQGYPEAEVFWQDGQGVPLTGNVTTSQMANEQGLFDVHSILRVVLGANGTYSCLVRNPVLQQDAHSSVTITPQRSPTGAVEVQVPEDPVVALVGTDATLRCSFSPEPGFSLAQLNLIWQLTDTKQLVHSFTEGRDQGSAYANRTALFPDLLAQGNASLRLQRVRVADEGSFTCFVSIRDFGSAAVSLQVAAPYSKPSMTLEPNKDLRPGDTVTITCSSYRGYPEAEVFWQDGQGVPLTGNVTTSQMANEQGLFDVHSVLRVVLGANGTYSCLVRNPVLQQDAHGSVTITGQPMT
Nature of the experiment: SPR, Biacore 8K, antibody captured, B7H3 as analyte, 1:1 binding. For orientation: In SPR one partner is held on a chip, and binding of the other changes the refractive index at the surface.

The target of experiment [7] is T2, HUMAN B7H3 (Biacore analyte). The experiment is described as above. The source holds these as a separate data set.

B1: hVH5-hVL3-10 (antibody, V domains shown)
VH: EVQLVESGGGLVQPGRSLRLSCTTSGFTLSDYYMSWVRQAPGKGLEWVGFMRNKANGYTTEYSASVRGRFTISRDTSKSIIYLQMNSLKTEDTAVYYCVRDRDGRPFAYWGQGTLVTVSS
VL: DIQMTQSPSSLSASVGDRVTITCKSSQSLLNSINQKNFLTWYQQKPGKAPKLLIYWASTRESGVPSRFSGSGSGTDFTLTISSLQPEDLATYYCQNDYTYPLTFGQGTKLEIK
In experiment [1], B1 returned an EC50 of 2.98 nM.

B2: hVH4-hVL2-10 (antibody, V domains shown)
VH: EVQLVESGGGLIQPGGSLRLSCATSGFTLSDYYMSWVRQPPGKGLEWVSFMRNKANGYTTEYSASVRGRFTISRDTSKSTIYLQMNSLRAEDTAVYYCVRDRDGRPFAYWGQGTLVTVSS
VL: DIVMTQSPLSLPVTPGEPASISCKSSQSLLNSINQKNFLTWYLQKPGQSPQLLIYWASTRESGVPDRFSGSGSGTDFTLKISRVEAEDLGVYYCQNDYTYPLTFGQGTKLEIK
As for B2, the EC50 in experiment [1] turned out to be 4.43 nM.

B3: 10-G6-C4-B2 (human IgG1 chimeric antibody) (antibody, V domains shown)
VH: EVQLVESGGGLVQPGGSLRLSCATSGFTLSDYYMSWVRQPPGKAPEWLGFMRNKANGYTTEYSASVRGRFTISRDTSQSIIYLQMNTLRAEDGATYYCVRDRDGRPFAYWGQGTLVTVSA
VL: DIVMTQSPSSLTVTAGEKVTMSCKSSQSLLNSINQKNFLTWYQQKPGQPPKLLIYWASTRESGVPDRFTGSGSGTDFTLTISSVQAEDLAIYYCQNDYTYPLTFGTGTKLELK
notes: human IgG1 chimeric antibody of the mouse clone
As to B3, in experiment [2], the midpoint of the response, the EC50, lay at 0.822 µg/mL and the “MFI (Max)” value came out at 5640. Further, the “EC50 of antibody induced ADCC effect on SKOV3” value in experiment [3] worked out at 0.237 µg/mL. In experiment [4], the “EC50 of antibody induced CDC effect” value stood at 2.74 nM and the “Top cytotoxicity (%), CDC” value was determined as 93.5%. Also, the “IC50 of indirect ADC cytotoxicity on SKOV3” value in experiment [5] stood at 0.008 nM. In experiment [6], this molecule showed an equilibrium dissociation constant (Kd) of 0.785 nM, a koff of 0.000198 s⁻¹ and a kon of 252000 M⁻¹ s⁻¹. In experiment [7], this molecule gave a Kd of 0.415 nM, a koff of 8.97e-05 s⁻¹ and a kon of 216000 M⁻¹ s⁻¹. In experiment [1], a half-maximal response (EC50) required 2.33 nM.
